Results from patent publication US20210060169A1.

Target: human IL-2Rαβγ (human) (UniProt P01589)
Experiment: cell-based or functional assay

Chain of human IL-2Rαβγ (human) (P01589 22-272, chain 1 of 3): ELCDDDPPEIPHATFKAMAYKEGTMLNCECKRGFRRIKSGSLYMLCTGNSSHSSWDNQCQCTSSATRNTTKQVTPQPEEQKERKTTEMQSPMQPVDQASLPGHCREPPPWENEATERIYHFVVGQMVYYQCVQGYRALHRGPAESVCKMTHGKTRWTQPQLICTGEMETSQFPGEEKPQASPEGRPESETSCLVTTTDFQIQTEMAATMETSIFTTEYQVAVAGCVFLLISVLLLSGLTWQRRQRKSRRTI
Chain of human IL-2Rαβγ (human) (P14784 27-551, chain 2 of 3, further chain): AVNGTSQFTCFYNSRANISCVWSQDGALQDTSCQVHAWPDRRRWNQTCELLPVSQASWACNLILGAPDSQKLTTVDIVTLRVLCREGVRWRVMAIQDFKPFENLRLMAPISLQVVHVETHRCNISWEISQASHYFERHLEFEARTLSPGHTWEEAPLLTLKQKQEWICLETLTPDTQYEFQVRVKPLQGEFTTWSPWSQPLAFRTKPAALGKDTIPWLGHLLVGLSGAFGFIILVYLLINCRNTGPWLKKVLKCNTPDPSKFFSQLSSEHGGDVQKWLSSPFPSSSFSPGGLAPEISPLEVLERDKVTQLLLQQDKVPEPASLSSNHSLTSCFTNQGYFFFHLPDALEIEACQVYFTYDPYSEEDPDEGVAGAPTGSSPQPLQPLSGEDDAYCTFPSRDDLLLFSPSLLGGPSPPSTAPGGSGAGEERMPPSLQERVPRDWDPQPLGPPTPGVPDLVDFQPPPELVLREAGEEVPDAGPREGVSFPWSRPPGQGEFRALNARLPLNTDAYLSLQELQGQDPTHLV
Chain of human IL-2Rαβγ (human) (P31785 23-369, chain 3 of 3, further chain): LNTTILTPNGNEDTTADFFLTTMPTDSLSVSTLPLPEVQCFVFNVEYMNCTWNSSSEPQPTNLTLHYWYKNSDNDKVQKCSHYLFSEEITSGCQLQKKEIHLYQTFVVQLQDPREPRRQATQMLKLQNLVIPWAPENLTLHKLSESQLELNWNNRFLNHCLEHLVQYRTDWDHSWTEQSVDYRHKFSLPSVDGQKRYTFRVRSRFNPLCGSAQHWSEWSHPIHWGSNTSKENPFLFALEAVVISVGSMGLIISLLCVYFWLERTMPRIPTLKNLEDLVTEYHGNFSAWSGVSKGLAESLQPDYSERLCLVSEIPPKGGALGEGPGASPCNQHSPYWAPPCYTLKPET
Chain of 8His-S4(oAzZK) (P60568 other isoform, or with tags, fused parts or gaps): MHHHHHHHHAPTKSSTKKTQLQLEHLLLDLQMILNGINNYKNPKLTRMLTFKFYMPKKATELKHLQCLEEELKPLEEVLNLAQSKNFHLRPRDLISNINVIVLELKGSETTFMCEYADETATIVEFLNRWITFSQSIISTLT

In the case of “8His-S4(oAzZK) (from UniProt P60568 25-153) (ligand)”, the Standardized EC50 ratio value is reported as under 5.
